Numbering of substitutions follows the chain as printed. Like-named read-outs stand apart in the source and are kept apart here.
B1: 2p442z8 humanized monoclonal antibody (antibody, V domains shown)
VH: QVQLVESGGGLVKPGGSLRLSCAASGFTFDYFAIGWFRQAPGKGREGVSCISGGGSTRYADSVKGRFTISRDNAKNSVYLQMNSLRPEDTAVYYCARARLLSRNCVPRDSGSWGQGTLVTVSS
notes: Humanized monoclonal antibody captured on AHC biosensor; also called VHHz8
B2: 2p442z10 humanized monoclonal antibody (antibody, V domains shown)
VH: B1 VH with G44E, R45L, R97A
notes: Humanized monoclonal antibody captured on AHC biosensor; also called VHHz10
B3: 2p442z9 humanized monoclonal antibody (antibody, V domains shown)
VH: B1 VH with G44E, R45L
notes: Humanized monoclonal antibody captured on AHC biosensor; also called VHHz9
B4: b13 (42p155z2) anti-5T4/CD40 bispecific antibody (bispecific antibody, human IgG1, kappa, N297A)
heavy: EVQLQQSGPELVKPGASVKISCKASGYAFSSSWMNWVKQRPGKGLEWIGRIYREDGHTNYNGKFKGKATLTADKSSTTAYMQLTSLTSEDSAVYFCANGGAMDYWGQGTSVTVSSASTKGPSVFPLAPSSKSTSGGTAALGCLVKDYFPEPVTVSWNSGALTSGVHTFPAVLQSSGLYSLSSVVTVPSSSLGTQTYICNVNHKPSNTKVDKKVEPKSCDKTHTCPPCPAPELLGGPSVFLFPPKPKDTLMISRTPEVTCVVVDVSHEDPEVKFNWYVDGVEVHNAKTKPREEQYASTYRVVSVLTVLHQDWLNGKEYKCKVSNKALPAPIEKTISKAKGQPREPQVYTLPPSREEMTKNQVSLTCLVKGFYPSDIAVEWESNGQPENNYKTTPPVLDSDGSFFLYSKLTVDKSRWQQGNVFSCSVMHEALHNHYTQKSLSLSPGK
light: DIQMTQSTSSLSASLGDRVTISCRASQDISNYLNWYQQKPDGTVKLLIYYTSRLHSGVPSRFSGSGSGTDYSLTISNLEQEDIATYFCQQDNTLPWTFGGGTKLEIKRTVAAPSVFIFPPSDEQLKSGTASVVCLLNNFYPREAKVQWKVDNALQSGNSQESVTEQDSKDSTYSLSSTLTLSKADYEKHKVYACEVTHQGLSSPVTKSFNRGECGGGGSGGGGSGGGGSGGGGSEVQLVESGGGLVQPGGSLRLSCAASGFAFRSYTMSWVRQAPGKGLEWVSTITHNGAITTYAESAQGRFTISRDNSKNTLYLQMNSLRAEDTAVYYCAQGGGSNYYRESWGQGTQVTVSS
notes: also called 2+2 b13 format
B5: 42p155z2 humanized monoclonal antibody (antibody, V domains shown)
VH: EVQLVESGGGLVQPGGSLRLSCAASGFAFRSYTMSWVRQAPGKGLEWVSTITHNGAITTYAESAQGRFTISRDNSKNTLYLQMNSLRAEDTAVYYCAQGGGSNYYRESWGQGTQVTVSS
notes: Humanized monoclonal antibody captured on Protein A; also called VHHz2
B6: 42p155z3 humanized monoclonal antibody (antibody, V domains shown)
VH: B5 VH with A88P
notes: Humanized monoclonal antibody captured on Protein A; also called VHHz3
B7: b18 (2p1130) anti-5T4/CD40 bispecific antibody (bispecific antibody, human IgG1, kappa, N297A)
heavy 1: EVQLQQSGPELVKPGASVKISCKASGYAFSSSWMNWVKQRPGKGLEWIGRIYREDGHTNYNGKFKGKATLTADKSSTTAYMQLTSLTSEDSAVYFCANGGAMDYWGQGTSVTVSSASTKGPSVFPLAPSSKSTSGGTAALGCLVKDYFPEPVTVSWNSGALTSGVHTFPAVLQSSGLYSLSSVVTVPSSSLGTQTYICNVNHKPSNTKVDKKVEPKSCDKTHTCPPCPAPELLGGPSVFLFPPKPKDTLMISRTPEVTCVVVDVSHEDPEVKFNWYVDGVEVHNAKTKPREEQYASTYRVVSVLTVLHQDWLNGKEYKCKVSNKALPAPIEKTISKAKGQPREPQVCTLPPSREEMTKNQVSLSCAVKGFYPSDIAVEWESNGQPENNYKTTPPVLDSDGSFFLVSKLTVDKSRWQQGNVFSCSVMHEALHNHYTQKSLSLSPGK
light: DIQMTQSTSSLSASLGDRVTISCRASQDISNYLNWYQQKPDGTVKLLIYYTSRLHSGVPSRFSGSGSGTDYSLTISNLEQEDIATYFCQQDNTLPWTFGGGTKLEIKRTVAAPSVFIFPPSDEQLKSGTASVVCLLNNFYPREAKVQWKVDNALQSGNSQESVTEQDSKDSTYSLSSTLTLSKADYEKHKVYACEVTHQGLSSPVTKSFNRGEC
heavy 2: not shown
notes: also called 1+3 b18 format
B8: b12 (42p155z2) anti-5T4/CD40 bispecific antibody (bispecific antibody, human IgG1, kappa, N297A)
heavy 1: B7 heavy 1
light: B7 light
heavy 2: not shown
notes: also called 1+1 b12 format
B9: b11 (42p155z2) anti-5T4/CD40 bispecific antibody (bispecific antibody, human IgG1, kappa, N297A)
heavy: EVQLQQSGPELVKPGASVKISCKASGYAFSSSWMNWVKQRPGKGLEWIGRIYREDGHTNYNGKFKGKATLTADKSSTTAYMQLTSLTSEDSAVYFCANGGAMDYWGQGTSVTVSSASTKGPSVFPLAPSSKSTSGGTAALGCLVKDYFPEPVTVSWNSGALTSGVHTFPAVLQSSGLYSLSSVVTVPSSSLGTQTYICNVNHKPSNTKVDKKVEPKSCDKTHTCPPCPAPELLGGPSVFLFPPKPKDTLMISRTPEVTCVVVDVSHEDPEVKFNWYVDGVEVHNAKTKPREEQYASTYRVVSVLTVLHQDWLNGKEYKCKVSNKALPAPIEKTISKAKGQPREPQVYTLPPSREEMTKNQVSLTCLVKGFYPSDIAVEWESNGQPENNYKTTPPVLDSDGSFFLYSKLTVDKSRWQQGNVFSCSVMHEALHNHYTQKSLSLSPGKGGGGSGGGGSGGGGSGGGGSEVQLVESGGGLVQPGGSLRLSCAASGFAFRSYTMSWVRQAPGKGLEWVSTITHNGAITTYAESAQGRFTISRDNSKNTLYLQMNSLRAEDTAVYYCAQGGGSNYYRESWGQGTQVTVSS
light: B7 light
notes: also called b 1 (42p155z2); 2+2 b11 format
B10: b17 (42p155z2) anti-5T4/CD40 bispecific antibody (bispecific antibody, human IgG1, kappa, N297A)
heavy 1: EVQLQQSGPELVKPGASVKISCKASGYAFSSSWMNWVKQRPGKGLEWIGRIYREDGHTNYNGKFKGKATLTADKSSTTAYMQLTSLTSEDSAVYFCANGGAMDYWGQGTSVTVSSASTKGPSVFPLAPSSKSTSGGTAALGCLVKDYFPEPVTVSWNSGALTSGVHTFPAVLQSSGLYSLSSVVTVPSSSLGTQTYICNVNHKPSNTKVDKKVEPKSCDKTHTCPPCPAPELLGGPSVFLFPPKPKDTLMISRTPEVTCVVVDVSHEDPEVKFNWYVDGVEVHNAKTKPREEQYASTYRVVSVLTVLHQDWLNGKEYKCKVSNKALPAPIEKTISKAKGQPREPQVCTLPPSREEMTKNQVSLSCAVKGFYPSDIAVEWESNGQPENNYKTTPPVLDSDGSFFLVSKLTVDKSRWQQGNVFSCSVMHEALHNHYTQKSLSLSPGKGGGGSGGGGSGGGGSGGGGSEVQLVESGGGLVQPGGSLRLSCAASGFAFRSYTMSWVRQAPGKGLEWVSTITHNGAITTYAESAQGRFTISRDNSKNTLYLQMNSLRAEDTAVYYCAQGGGSNYYRESWGQGTQVTVSS
light: B7 light
heavy 2: not shown
notes: also called 1+2 b17 format

What was measured:
human CD40-His protein [1] = target: T1, human CD40-His protein (human, UniProt P25942 21-193); assay: BLI Octet RED96e, antibody captured on AHC, CD40-His as analyte
T1 construct: His-tagged recombinant protein; also called human CD40-his tag; recombinant CD40 protein
T1 sequence (P25942 21-193 limits assumed): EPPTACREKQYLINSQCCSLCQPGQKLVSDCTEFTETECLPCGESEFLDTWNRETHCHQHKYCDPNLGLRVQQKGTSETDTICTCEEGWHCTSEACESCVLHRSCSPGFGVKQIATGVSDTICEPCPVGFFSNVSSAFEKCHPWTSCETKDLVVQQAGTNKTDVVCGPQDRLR
Protocol: (§1) The binding of the humanized 42p155 and 2p442 antibodies to recombinant human CD40 protein (human CD40-his tag) was tested by Biacore and Octet, respectively, using a capture method.
For humanized 2p442 monoclonal antibodies, 2p442z8, 2p442z9 and 2p442z10 were captured using AHC biosensor. A serial dilution of human CD40-his tag protein was incubated with captured antibody for 5 mins. The antigen was allowed to dissociate for 10 min. All the experiments were carried out on an Octet RED96e. Data analysis was carried out using Octet Analysis Studio 12.2 software.

[2] = target: T2, human CD40 on the cell surface (human, UniProt P25942 21-277); assay: FACS, Jurkat cells overexpressing human CD40, PE anti-human IgG, MFI
T2 construct: whole, on cells; also called cell surface CD40; Jurkat-CD40
T2 sequence (P25942 21-277): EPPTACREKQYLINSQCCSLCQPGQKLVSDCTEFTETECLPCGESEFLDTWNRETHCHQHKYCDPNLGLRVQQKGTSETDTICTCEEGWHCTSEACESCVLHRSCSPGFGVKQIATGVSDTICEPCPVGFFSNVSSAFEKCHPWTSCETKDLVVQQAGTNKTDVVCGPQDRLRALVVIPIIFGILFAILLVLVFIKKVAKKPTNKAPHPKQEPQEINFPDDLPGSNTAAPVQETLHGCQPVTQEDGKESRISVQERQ
Protocol: (§2) To evaluate the binding affinity of humanized 2p442 monoclonal antibodies to cell surface CD40, 2p442z8, 2p442z9, 2p442z10 and parental 2p442 were tested in Jurkat cell lines that overexpressed CD40 by FACS. A total number of 1×10⁵ Jurkat-CD40 cells in each well were incubated with 3-fold serially diluted antibodies starting from 100 nM for 30 minutes at 4° C. in FACS buffer. After wash by FACS buffer, PE conjugated-anti-human IgG antibody was added to each well and incubated at 4° C. for 30 minutes. After wash, MFI of PE was evaluated by MACSQuant Analyzer 16.

[3] = target: T2, human CD40 on the cell surface; assay: as above; remark: listed apart in the source
Protocol: as §2, with “5T4-CD40 bispecific” for “humanized 2p442 monoclonal”, “bispecific antibodies with formats of b 1 (42p155z2), b12 (42p155z2), b13 (42p155z2), b16 (42p155z2), b17 (42p155z2)” for “2p442z8, 2p442z9, 2p442z10”, “b18 (2p1130)” for “parental 2p442”, “5-fold” for “3-fold”

human CD40-His protein [4] = target: T1, human CD40-His protein; assay: SPR Biacore T200, antibody captured on Protein A, CD40-His as analyte
Protocol: as §1
For humanized 42p155 monoclonal antibodies, 42p155z2 and 42p155z3 were captured using Protein A chip. A serial dilution of human CD40-his tag protein was injected over captured antibody for 3 mins at a flow rate of 10 μl/min. The antigen was allowed to dissociate for 6 min. All the experiments were carried out on a Biacore T200. Data analysis was carried out using Biacore T200 evaluation software.

Binder | Kd (human CD40-His protein [1]) | koff (human CD40-His protein [1]) | kon (human CD40-His protein [1]) | EC50 (read off the curve) [2] | binding result [3] | further results
B1 | 56.7 nM | 0.0119 s⁻¹ | 210000 M⁻¹ s⁻¹ | ~0.2 nM | – | –
B2 | 69.6 nM | 0.0337 s⁻¹ | 485000 M⁻¹ s⁻¹ | ~0.2 nM | – | –
B3 | 34.8 nM | 0.0125 s⁻¹ | 357000 M⁻¹ s⁻¹ | ~0.2 nM | – | –
B4 | – | – | – | – | binds | –
B5 | – | – | – | – | – | Kd (human CD40-His protein [4]): 186 nM; koff (human CD40-His protein [4]): 0.0368 s⁻¹; kon (human CD40-His protein [4]): 198000 M⁻¹ s⁻¹
B6 | – | – | – | – | – | Kd (human CD40-His protein [4]): 193 nM; koff (human CD40-His protein [4]): 0.0555 s⁻¹; kon (human CD40-His protein [4]): 287000 M⁻¹ s⁻¹
B7 | – | – | – | – | – | EC50 (read off the curve) [3]: ~2 nM
B8 | – | – | – | – | binds | –
B9 | – | – | – | – | binds | –
B10 | – | – | – | – | binds | –
